Changes are numbered by the printed parent chain.
How the values were obtained:
PLCβ3 L876A EEE = biological target: T1, PLCβ3 L876A EEE (human, UniProt Q01970); experiment: cell-based or functional assay
T1 chain: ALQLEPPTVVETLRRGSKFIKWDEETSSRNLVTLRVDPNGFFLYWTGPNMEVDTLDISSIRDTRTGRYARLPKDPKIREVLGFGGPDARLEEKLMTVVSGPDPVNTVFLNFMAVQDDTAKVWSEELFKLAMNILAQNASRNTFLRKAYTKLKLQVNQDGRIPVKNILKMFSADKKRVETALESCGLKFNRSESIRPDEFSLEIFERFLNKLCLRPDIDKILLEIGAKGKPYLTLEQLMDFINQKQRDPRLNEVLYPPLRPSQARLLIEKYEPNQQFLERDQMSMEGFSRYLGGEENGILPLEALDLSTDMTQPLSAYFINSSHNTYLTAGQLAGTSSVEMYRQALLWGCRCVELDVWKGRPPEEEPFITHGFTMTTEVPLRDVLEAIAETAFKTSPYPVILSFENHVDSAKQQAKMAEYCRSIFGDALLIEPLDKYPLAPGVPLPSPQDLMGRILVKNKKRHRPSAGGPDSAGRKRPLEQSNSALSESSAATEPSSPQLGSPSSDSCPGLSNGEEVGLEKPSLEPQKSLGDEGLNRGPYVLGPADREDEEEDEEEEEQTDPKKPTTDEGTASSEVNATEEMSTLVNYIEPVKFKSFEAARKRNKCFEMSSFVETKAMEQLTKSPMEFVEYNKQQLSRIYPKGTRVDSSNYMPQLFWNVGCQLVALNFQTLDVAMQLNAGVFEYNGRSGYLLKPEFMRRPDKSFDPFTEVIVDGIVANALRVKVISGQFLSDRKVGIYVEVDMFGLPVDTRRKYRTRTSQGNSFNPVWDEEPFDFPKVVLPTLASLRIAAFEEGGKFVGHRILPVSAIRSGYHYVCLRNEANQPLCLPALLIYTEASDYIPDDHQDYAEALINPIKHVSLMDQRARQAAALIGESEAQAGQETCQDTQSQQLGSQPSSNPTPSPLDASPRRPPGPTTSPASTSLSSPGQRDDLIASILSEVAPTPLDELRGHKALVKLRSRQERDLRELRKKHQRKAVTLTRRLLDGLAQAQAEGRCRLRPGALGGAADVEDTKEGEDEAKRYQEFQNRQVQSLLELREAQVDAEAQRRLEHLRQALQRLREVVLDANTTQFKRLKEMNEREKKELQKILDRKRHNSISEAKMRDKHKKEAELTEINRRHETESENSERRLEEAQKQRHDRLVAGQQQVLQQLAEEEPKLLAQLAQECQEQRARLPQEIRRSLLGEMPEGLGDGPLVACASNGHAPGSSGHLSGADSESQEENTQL

PLCβ3 T652E = biological target: T2, PLCβ3 T652E (human, UniProt Q01970); experiment: cell-based or functional assay
T2 chain: T1 chain with T643E, A867L, E1120I, E1124V, E1127I

B1: murine Gαq (residues 7–359), biotinylated for bead binding (natural protein)
chain: MACCLSEEAKEARRINDEIERQLRRDKRDARRELKLLLLGTGESGKSTFIKQMRIIHGSGYSDEDKRGFTKLVYQNIFTAMQAMIRAMDTLKIPYKYEHNKAHAQLVREVDVEKVSAFENPYVDAIKSLWNDPGIQECYDRRREYQLSDSTKYYLNDLDRVADPSYLPTQQDVLRVRVPTTGIIEYPFDLQSVIFRMVDVGGQRSERRKWIHCFENVTSIMFLVALSEYDQVLVESDNENRMEESKALFRTIITYPWFQNSSVILFLNKKDLLEEKIMYSHLVDYFPEYDGPQRDAQAAREFILKMFVDLNPDSDKIIYSHFTCATDTENIRFVFAAVKDTILQLNLKEYNLV
EC50 of Gαq-stimulated PIP2 hydrolysis ([3H]-IP3 release from liposomes) (PLCβ3 L876A EEE): 32 nM
Max specific activity of Gαq-stimulated PIP2 hydrolysis (liposomes) (PLCβ3 L876A EEE): 3900 nmol IP3/min/nmol PLCβ3
EC50 of Gαq-stimulated PIP2 hydrolysis ([3H]-IP3 release from liposomes) (PLCβ3 T652E): 1150 nM

From paper PMC3594540 (Nature structural & molecular biology, 2013)
